Data published in patent publication US9187525B2, “Methods of treating ophthalmic diseases using NPR-B agonists” (Shire Orphan Therapies GmbH, dated 2015).
Numbered stars: 1 amine (or outer) side, 2 acyl side, 3 side chain; on linkers, the order of the positions; unused ones are H or OH. Square brackets hold non-standard residues; d marks the D form. * marks the point of attachment. cDR = (S)-2-((S)-3-(carboxymethyl)-2-oxopiperazin-1-yl)-5-guanidinopentanoic acid, N=C(N)NCCC[C@@H](C(=O)[*:2])N1CCN([*:1])[C@@H](CC(=O)[*:3])C1=O; Bhp = (2S,4R)-4-(benzyloxy)pyrrolidine-2-carboxylic acid, O=C([C@@H]1C[C@@H](OCc2ccccc2)CN1[*:1])[*:2]; ctb = (S)-2-amino-3-(tert-butylthio)propanoic acid, CC(C)(C)SC[C@@H](N[*:1])C(=O)[*:2]; Npl = (S)-4-methyl-2-(propylamino)pentanoic acid, CCCN([C@@H](CC(C)C)C(=O)[*:2])[*:1]; Sni = (S)-nipecotic acid, O=C([C@H]1CCCN([*:1])C1)[*:2]; Phe(4-Cl) = N[C@@H](Cc1ccc(Cl)cc1)C(=O)O; Phe(4-Me) = Cc1ccc(C[C@H](N)C(=O)O)cc1; Hyp = O=C(O)[C@@H]1C[C@@H](O)CN1; NMeF = CN[C@@H](Cc1ccccc1)C(=O)O; dAoc(2) = CCCCCC[C@@H](N)C(=O)O; Aoc(2) = CCCCCC[C@H](N)C(=O)O; NMeL = CN[C@@H](CC(C)C)C(=O)O; dNle = CCCC[C@@H](N)C(=O)O; dOrn = NCCC[C@@H](N)C(=O)O; dNva = CCC[C@@H](N)C(=O)O; dPip = O=C(O)[C@H]1CCCCN1; Octanoyl = CCCCCCCC(=O)*; Hexanoyl = CCCCCC(=O)*

T1: natriuretic peptide receptor-B (human)
T1 chain: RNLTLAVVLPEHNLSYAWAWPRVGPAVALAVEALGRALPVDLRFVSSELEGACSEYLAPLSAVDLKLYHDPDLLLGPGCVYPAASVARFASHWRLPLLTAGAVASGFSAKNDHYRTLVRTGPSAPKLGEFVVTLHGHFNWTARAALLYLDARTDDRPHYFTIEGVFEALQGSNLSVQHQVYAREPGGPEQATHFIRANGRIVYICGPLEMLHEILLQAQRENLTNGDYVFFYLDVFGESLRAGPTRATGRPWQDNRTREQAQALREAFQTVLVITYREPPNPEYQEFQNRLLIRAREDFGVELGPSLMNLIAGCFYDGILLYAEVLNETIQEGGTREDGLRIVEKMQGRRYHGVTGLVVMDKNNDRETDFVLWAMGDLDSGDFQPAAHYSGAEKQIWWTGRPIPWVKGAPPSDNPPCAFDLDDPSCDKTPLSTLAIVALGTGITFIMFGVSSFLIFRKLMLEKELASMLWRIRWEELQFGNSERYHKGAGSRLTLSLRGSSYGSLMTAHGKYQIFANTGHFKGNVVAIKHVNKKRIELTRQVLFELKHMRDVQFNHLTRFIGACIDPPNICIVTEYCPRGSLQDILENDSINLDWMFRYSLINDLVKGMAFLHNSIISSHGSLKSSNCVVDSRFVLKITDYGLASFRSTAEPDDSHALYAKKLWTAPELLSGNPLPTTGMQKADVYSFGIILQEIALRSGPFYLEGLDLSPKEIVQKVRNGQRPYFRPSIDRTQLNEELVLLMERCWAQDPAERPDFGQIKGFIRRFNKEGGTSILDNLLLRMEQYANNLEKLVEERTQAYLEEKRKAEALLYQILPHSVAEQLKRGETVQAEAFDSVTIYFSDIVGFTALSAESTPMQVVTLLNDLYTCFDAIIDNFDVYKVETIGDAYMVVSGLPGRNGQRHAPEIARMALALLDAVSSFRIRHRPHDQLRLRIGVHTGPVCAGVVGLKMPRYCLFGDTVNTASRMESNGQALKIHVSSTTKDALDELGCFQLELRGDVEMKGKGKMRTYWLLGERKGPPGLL

B1: JAL-1027 (peptide)
peptide: Octanoyl-[dA]F[dNva]L[Hyp]LDRI-NH2
B2: JAL-1028 (peptide)
peptide: Octanoyl-[dA]F[dF]L[Hyp]LDRI-NH2
B3: JAL-1029 (peptide)
peptide: Octanoyl-[dA]F[ctb]L[Hyp]LDRI-NH2
B4: JAL-1030 (peptide)
peptide: Octanoyl-[dA]F[dK]LPLDRI-NH2
B5: JAL-1031 (peptide)
peptide: Octanoyl-[dA]F[dR]LPLDRI-NH2
B6: JAL-1032 (peptide)
peptide: Octanoyl-[dA]F[dH]LPLDRI-NH2
B7: JAL-1033 (peptide)
peptide: Ac-[Aoc(2)][dA][dA]FGLPLDRI-NH2
B8: JAL-1034 (peptide)
peptide: Ac-[dAoc(2)][dA][dA]FGLPLDRI-NH2
B9: JAL-1035 (peptide)
peptide: Octanoyl-[dPip]FGLPLDRI-NH2
B10: JAL-1037 (peptide)
peptide: Octanoyl-[dA]FGLPL[cDR]I-NH2
B11: JAL-1038 (peptide)
peptide: Octanoyl-[dA]FGL[Bhp]LDRI-NH2
B12: JAL-1039 (peptide)
peptide: Octanoyl-[dA]F[dL]LP[NMeL]DRI-NH2
B13: JAL-1040 (peptide)
peptide: Octanoyl-[Sni]F[dL]LP[NMeL]DRI-NH2
B14: JAL-1041 (peptide)
peptide: Octanoyl-[Sni]F[dL]L[Hyp][NMeL]DRI-NH2
B15: JAL-1042 (peptide)
peptide: Octanoyl-[dA]F[dL]L[Hyp][NMeL]DRI-NH2
B16: JAL-1043 (peptide)
peptide: Octanoyl-[dA][Phe(4-Cl)][dL]L[Hyp][NMeL]DRI-NH2
B17: JAL-1044 (peptide)
peptide: Octanoyl-[dA]F[dNle]L[Hyp][NMeL]DRI-NH2
B18: JAL-0538 (peptide)
peptide: Hexanoyl-G[dA]FGLKLDRISA-NH2
B19: JAL-1045 (peptide)
peptide: Octanoyl-[dA]FGLP[Npl]DRI-NH2
B20: JAL-1047 (peptide)
peptide: Octanoyl-[dA]F[dR]L[Hyp]LDRI-NH2
B21: JAL-1048 (peptide)
peptide: Octanoyl-[dA]F[dD]L[Hyp]LDRI-NH2
B22: JAL-1050 (peptide)
peptide: Octanoyl-[dA][Phe(4-Cl)][dL]L[Hyp]LDRI-NH2
B23: JAL-1051 (peptide)
peptide: Octanoyl-[dA][Phe(4-Me)][dL]L[Hyp]LDRI-NH2
B24: JAL-1052 (peptide)
peptide: Octanoyl-[dA][NMeF][dL]L[Hyp]LDRI-NH2
B25: JAL-1053 (peptide)
peptide: Octanoyl-[dP]F[dL]L[Hyp]LDRI-NH2
B26: JAL-1054 (peptide)
peptide: Octanoyl-[dPip]F[dL]L[Hyp]LDRI-NH2
B27: JAL-1060 (peptide)
peptide: Octanoyl-[dA]F[dK]L[Hyp][NMeL]DRI-NH2
B28: JAL-0539 (peptide)
peptide: Hexanoyl-G[dA]FGLKLDRISG-NH2
B29: JAL-1061 (peptide)
peptide: Octanoyl-[dA]F[dOrn]L[Hyp][NMeL]DRI-NH2
B30: JAL-1065 (peptide)
peptide: Octanoyl-[dA]F[dK]LP[NMeL]DRI-NH2
B31: JAL-1068 (peptide)
peptide: Octanoyl-[dA]F[dK]LP[NMeL]ARI-NH2
B32: JAL-1075 (peptide)
peptide: Octanoyl-[dA]F[dR]LP[NMeL]DRI-NH2
B33: JAL-1076 (peptide)
peptide: Octanoyl-[dA][NMeF][dR]LP[NMeL]DRI-NH2
B34: JAL-1077 (peptide)
peptide: Octanoyl-X[NMeF][dR]LP[NMeL]DRI-NH2
modifications: not fully specified (some residues); printed as Occ-pip-Nmf-arg-Leu-Pro-Nml-Asp-Arg-Ile-NH2
B35: JAL-1078 (peptide)
peptide: Octanoyl-XF[dR]LP[NMeL]DRI-NH2
modifications: not fully specified (some residues); printed as Occ-pip-Phe-arg-Leu-Pro-Nml-Asp-Arg-Ile-NH2
B36: JAL-1085 (peptide)
peptide: Octanoyl-[dA][NMeF][dR]L[Hyp][NMeL]DRI-NH2
B37: JAL-1086 (peptide)
peptide: Octanoyl-[dA]F[dR]L[Hyp][NMeL]DRI-NH2
B38: JAL-1087 (peptide)
peptide: Octanoyl-XF[dR]L[Hyp][NMeL]DRI-NH2
modifications: not fully specified (some residues); printed as Occ-pip-Phe-arg-Leu-Hyp-Nml-Asp-Arg-Ile-NH2
B39: JAL-0540 (peptide)
peptide: XXAFGLKLDRIS
modifications: Hex-Ebe-ala-Phe-Gly-Leu-Lys-Leu-Asp-Arg-Ile-Ser-NH2

Molecular target: T1, natriuretic peptide receptor-B
Assay: cell-based or functional assay

Q: For B1, which “EC50 group, cGMP in GTM-3 cells” value is on record?
A: Its value is ≤ 5 µM.

Q: Which “EC50 group, cGMP in GTM-3 cells” value does the source give for B2 here?
A: The value was ≤ 5 µM.

Q: With B3 as the binder, how does the “EC50 group, cGMP in GTM-3 cells” value read?
A: The value was ≤ 5 µM.

Q: B4 was tested. Which “EC50 group, cGMP in GTM-3 cells” value did it give?
A: Its value is ≤ 5 µM.

Q: Which “EC50 group, cGMP in GTM-3 cells” value does the source give for B5 here?
A: The value was ≤ 5 µM.

Q: With B6 as the binder, how does the “EC50 group, cGMP in GTM-3 cells” value read?
A: Its value is ≤ 5 µM.

Q: For B7, which “EC50 group, cGMP in GTM-3 cells” value is on record?
A: Its value is ≤ 5 µM.

Q: For B8, which “EC50 group, cGMP in GTM-3 cells” value is on record?
A: Its value is ≤ 5 µM.

Q: With B9 as the binder, how does the “EC50 group, cGMP in GTM-3 cells” value read?
A: The value was ≤ 15 µM.

Q: Which “EC50 group, cGMP in GTM-3 cells” value does the source give for B10 here?
A: The value was ≤ 15 µM.

Q: With B11 as the binder, how does the “EC50 group, cGMP in GTM-3 cells” value read?
A: The value was ≤ 15 µM.

Q: B12 was tested. Which “EC50 group, cGMP in GTM-3 cells” value did it give?
A: The value was ≤ 1 µM.

Q: How did the “EC50 group, cGMP in GTM-3 cells” value turn out when B13 was run?
A: The value was ≤ 1 µM.

Q: How did the “EC50 group, cGMP in GTM-3 cells” value turn out when B14 was run?
A: Its value is ≤ 1 µM.

Q: With B15 as the binder, how does the “EC50 group, cGMP in GTM-3 cells” value read?
A: Its value is ≤ 1 µM.

Q: For B16, which “EC50 group, cGMP in GTM-3 cells” value is on record?
A: Its value is ≤ 1 µM.

Q: For B17, which “EC50 group, cGMP in GTM-3 cells” value is on record?
A: Its value is ≤ 1 µM.

Q: How did the “EC50 group, cGMP in GTM-3 cells” value turn out when B18 was run?
A: The value was ≤ 5 µM.

Q: B19 was tested. Which “EC50 group, cGMP in GTM-3 cells” value did it give?
A: The value was ≤ 15 µM.

Q: How did the “EC50 group, cGMP in GTM-3 cells” value turn out when B20 was run?
A: Its value is ≤ 1 µM.

Q: B21 was tested. Which “EC50 group, cGMP in GTM-3 cells” value did it give?
A: The value was ≤ 15 µM.

Q: Which “EC50 group, cGMP in GTM-3 cells” value does the source give for B22 here?
A: The value was ≤ 1 µM.

Q: With B23 as the binder, how does the “EC50 group, cGMP in GTM-3 cells” value read?
A: Its value is ≤ 5 µM.

Q: B24 was tested. Which “EC50 group, cGMP in GTM-3 cells” value did it give?
A: The value was ≤ 1 µM.

Q: B25 was tested. Which “EC50 group, cGMP in GTM-3 cells” value did it give?
A: The value was ≤ 1 µM.

Q: With B26 as the binder, how does the “EC50 group, cGMP in GTM-3 cells” value read?
A: The value was ≤ 1 µM.

Q: With B27 as the binder, how does the “EC50 group, cGMP in GTM-3 cells” value read?
A: Its value is ≤ 1 µM.

Q: How did the “EC50 group, cGMP in GTM-3 cells” value turn out when B28 was run?
A: The value was ≤ 5 µM.

Q: Which “EC50 group, cGMP in GTM-3 cells” value does the source give for B29 here?
A: Its value is ≤ 1 µM.

Q: Which “EC50 group, cGMP in GTM-3 cells” value does the source give for B30 here?
A: Its value is ≤ 5 µM.

Q: For B31, which “EC50 group, cGMP in GTM-3 cells” value is on record?
A: The value was ≤ 15 µM.

Q: How did the “EC50 group, cGMP in GTM-3 cells” value turn out when B32 was run?
A: Its value is ≤ 5 µM.

Q: For B33, which “EC50 group, cGMP in GTM-3 cells” value is on record?
A: Its value is ≤ 5 µM.

Q: For B34, which “EC50 group, cGMP in GTM-3 cells” value is on record?
A: The value was ≤ 1 µM.

Q: For B35, which “EC50 group, cGMP in GTM-3 cells” value is on record?
A: Its value is ≤ 1 µM.

Q: With B36 as the binder, how does the “EC50 group, cGMP in GTM-3 cells” value read?
A: The value was ≤ 1 µM.

Q: B37 was tested. Which “EC50 group, cGMP in GTM-3 cells” value did it give?
A: The value was ≤ 1 µM.

Q: B38 was tested. Which “EC50 group, cGMP in GTM-3 cells” value did it give?
A: The value was ≤ 1 µM.

Q: Which “EC50 group, cGMP in GTM-3 cells” value does the source give for B39 here?
A: The value was ≤ 15 µM.
